The numbers were not newly measured in article PMC5672155, which cites them from elsewhere.

For series [1], the target named is Sec63 (Homo sapiens) (UniProt Q9UGP8).
Series [2] addresses Sec61α (Homo sapiens) (UniProt P61619).
Series [3] deals with LC3 (Homo sapiens) (UniProt Q9GZQ8).
The target of series [4] is Sec62 (Homo sapiens) (UniProt Q99442).
Sequence of UniProt Q99442 (Q99442 whole entry): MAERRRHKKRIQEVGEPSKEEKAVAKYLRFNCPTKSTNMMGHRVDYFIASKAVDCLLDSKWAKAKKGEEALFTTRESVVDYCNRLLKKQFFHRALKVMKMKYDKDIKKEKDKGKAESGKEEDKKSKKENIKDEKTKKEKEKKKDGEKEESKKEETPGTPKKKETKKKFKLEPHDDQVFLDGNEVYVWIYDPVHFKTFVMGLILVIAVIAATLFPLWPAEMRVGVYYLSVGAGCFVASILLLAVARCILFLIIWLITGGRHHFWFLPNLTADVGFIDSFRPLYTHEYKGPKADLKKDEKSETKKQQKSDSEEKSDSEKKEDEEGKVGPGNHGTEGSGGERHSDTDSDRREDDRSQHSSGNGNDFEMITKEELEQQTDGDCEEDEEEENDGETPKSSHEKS

Sequence of UniProt P61619 (P61619 whole entry): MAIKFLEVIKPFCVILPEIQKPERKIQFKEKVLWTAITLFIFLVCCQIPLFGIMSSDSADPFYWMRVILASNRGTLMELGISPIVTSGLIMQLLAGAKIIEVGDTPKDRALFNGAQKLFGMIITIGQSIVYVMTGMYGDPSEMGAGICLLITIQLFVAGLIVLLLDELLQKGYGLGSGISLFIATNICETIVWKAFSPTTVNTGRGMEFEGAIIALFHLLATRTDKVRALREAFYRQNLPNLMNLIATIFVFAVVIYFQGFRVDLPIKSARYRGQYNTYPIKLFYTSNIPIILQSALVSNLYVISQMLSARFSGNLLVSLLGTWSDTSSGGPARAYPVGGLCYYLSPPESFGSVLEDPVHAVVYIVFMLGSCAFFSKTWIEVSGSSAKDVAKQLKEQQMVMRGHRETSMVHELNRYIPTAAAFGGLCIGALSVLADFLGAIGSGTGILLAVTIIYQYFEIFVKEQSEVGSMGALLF

In the case of BiP (from UniProt P11021), the Kd in series [1] was 5 µM; in series [2], 500 µM.

As for Sec62 (from UniProt Q99442), the Kd in series [3] was 20 µM.

Sec63 (from UniProt Q9UGP8): the Kd in series [4] was 0.005 µM.

What is called Kd is the constant that tells how readily two partners part at equilibrium.
